Test results: patent US20080102072A1

Tests used:
[1] = molecular target: human IFNAR1, membrane receptor on cells (U266 human myeloma cells; Hela and A549 cells in the functional assays) (human) (UniProt P17181); test: cell-based or functional assay
[2] = molecular target: human IFNAR1, membrane receptor on cells (U266 human myeloma cells; Hela and A549 cells in the functional assays) (human) (UniProt P17181); test: flow cytometry on U266 cells, fluoresceinated mAb 1 µg/100 µl, no soluble hIFNAR1
[3] = molecular target: human IFNAR1, membrane receptor on cells (U266 human myeloma cells; Hela and A549 cells in the functional assays) (human) (UniProt P17181); test: flow cytometry on U266 cells, F-mAb preincubated with competitor: 10 µg soluble wild type hIFNAR1-IgG
[4] = molecular target: hIFNAR1 ECD-IgG fusion protein (immunoadhesin, pRK5 hIFNAR1-IgG clone 53.65), wild type (human); test: competitive radioimmunoprecipitation with 125I-hIFNAR1-IgG and unlabeled hIFNAR1-IgG, Scatchard analysis
[5] = molecular target: IFNAR1-IgG multiple alanine mutant 1, residues 19-25 (RWNRSDE to AWNASAA) (human); test: capture ELISA, mutant IFNAR1-IgG captured by goat anti-hIgG-Fc, mAb 10 µg/ml; OD as % of wild type IFNAR1-IgG
[6] = molecular target: IFNAR1-IgG multiple alanine mutant 10, residues 383-388 (DEKLNK to AAALNA) (human); test: as above
Chain of IFNAR1-IgG multiple alanine mutant 10, residues 383-388 (DEKLNK to AAALNA) (human) (chain, as listed by the source mutant limits assumed): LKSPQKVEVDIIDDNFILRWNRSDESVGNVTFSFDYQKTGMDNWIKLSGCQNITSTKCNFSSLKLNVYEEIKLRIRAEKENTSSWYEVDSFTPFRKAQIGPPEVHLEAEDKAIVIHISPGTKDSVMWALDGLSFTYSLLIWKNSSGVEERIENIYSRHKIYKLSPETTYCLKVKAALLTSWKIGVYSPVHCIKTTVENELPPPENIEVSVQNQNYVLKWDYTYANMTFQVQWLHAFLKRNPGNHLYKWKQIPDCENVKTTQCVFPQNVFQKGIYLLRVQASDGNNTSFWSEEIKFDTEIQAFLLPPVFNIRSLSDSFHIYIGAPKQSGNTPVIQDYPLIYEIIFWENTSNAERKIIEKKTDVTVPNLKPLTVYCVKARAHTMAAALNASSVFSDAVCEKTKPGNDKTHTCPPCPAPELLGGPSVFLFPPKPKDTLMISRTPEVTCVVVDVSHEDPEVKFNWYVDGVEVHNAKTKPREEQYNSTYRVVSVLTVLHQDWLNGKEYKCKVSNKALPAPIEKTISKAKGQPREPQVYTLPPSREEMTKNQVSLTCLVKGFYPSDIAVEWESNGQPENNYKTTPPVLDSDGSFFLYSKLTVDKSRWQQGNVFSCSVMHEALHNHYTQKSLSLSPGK

[7] = molecular target: IFNAR1-IgG multiple alanine mutant 2, residues 69-74 (EEIKLR to AAIALA) (human); test: as above
[8] = molecular target: IFNAR1-IgG multiple alanine mutant 3, residues 76-80 (RAEKE to AAAAA) (human); test: as above
[9] = molecular target: IFNAR1-IgG multiple alanine mutant 4, residues 103-111 (… to …) (human); test: as above
[10] = molecular target: IFNAR1-IgG multiple alanine mutant 5, residues 148-152 (EERIE to AAAIA) (human); test: as above
[11] = molecular target: IFNAR1-IgG multiple alanine mutant 6, residues 157-162 (RHKIYK to AAAIYA) (human); test: as above
[12] = molecular target: IFNAR1-IgG multiple alanine mutant 7, residues 244-249 (HLYKWK to ALYAWA) (human); test: as above
Chain of IFNAR1-IgG multiple alanine mutant 7, residues 244-249 (HLYKWK to ALYAWA) (human) (chain, as listed by the source mutant limits assumed): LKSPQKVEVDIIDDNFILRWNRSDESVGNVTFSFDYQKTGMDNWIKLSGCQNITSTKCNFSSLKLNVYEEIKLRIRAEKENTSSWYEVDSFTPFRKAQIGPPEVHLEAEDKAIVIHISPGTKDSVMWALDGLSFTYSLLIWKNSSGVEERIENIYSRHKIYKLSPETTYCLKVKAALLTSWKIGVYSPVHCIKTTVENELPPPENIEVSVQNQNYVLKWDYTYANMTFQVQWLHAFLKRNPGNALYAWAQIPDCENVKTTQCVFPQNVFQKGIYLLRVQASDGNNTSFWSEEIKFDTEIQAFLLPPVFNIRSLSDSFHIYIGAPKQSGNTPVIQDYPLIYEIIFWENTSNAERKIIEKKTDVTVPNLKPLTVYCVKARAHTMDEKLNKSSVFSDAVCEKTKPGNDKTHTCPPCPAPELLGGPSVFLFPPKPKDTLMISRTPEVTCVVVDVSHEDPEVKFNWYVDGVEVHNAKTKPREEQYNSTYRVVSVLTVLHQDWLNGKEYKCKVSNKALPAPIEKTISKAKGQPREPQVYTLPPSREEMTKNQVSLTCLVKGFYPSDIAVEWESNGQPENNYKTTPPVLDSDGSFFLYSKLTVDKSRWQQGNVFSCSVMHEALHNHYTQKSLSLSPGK

[13] = molecular target: IFNAR1-IgG multiple alanine mutant 8, residues 291-298 (EEIKFDTE to AAIAFATA) (human); test: as above
Chain of IFNAR1-IgG multiple alanine mutant 8, residues 291-298 (EEIKFDTE to AAIAFATA) (human) (chain, as listed by the source mutant limits assumed): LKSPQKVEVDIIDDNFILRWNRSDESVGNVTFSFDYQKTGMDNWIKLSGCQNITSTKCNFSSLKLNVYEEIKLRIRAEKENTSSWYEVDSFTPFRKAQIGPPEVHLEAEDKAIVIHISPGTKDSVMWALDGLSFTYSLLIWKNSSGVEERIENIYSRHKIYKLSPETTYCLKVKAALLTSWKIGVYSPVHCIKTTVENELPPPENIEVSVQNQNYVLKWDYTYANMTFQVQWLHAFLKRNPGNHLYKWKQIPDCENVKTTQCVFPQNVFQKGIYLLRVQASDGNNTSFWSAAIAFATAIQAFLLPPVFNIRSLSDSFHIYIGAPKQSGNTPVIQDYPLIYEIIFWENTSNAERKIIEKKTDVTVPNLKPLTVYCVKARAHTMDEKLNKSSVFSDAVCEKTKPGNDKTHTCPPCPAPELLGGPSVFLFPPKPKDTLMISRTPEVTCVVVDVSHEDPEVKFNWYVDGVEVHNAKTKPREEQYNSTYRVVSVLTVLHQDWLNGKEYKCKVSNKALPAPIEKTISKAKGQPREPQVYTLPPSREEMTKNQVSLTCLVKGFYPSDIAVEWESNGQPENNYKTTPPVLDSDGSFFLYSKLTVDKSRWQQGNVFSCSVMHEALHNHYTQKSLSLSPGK

[14] = molecular target: IFNAR1-IgG multiple alanine mutant 9, residues 352-359 (ERKIIEKK to AAAIIAAA) (human); test: as above
[15] = molecular target: IFNAR1-IgG single alanine mutant D296A (human); test: capture ELISA, single alanine mutant IFNAR1-IgG captured by goat anti-hIgG-Fc; OD as % of wild type IFNAR1-IgG
Chain of IFNAR1-IgG single alanine mutant D296A (human) (chain, as listed by the source D296A D296A limits assumed): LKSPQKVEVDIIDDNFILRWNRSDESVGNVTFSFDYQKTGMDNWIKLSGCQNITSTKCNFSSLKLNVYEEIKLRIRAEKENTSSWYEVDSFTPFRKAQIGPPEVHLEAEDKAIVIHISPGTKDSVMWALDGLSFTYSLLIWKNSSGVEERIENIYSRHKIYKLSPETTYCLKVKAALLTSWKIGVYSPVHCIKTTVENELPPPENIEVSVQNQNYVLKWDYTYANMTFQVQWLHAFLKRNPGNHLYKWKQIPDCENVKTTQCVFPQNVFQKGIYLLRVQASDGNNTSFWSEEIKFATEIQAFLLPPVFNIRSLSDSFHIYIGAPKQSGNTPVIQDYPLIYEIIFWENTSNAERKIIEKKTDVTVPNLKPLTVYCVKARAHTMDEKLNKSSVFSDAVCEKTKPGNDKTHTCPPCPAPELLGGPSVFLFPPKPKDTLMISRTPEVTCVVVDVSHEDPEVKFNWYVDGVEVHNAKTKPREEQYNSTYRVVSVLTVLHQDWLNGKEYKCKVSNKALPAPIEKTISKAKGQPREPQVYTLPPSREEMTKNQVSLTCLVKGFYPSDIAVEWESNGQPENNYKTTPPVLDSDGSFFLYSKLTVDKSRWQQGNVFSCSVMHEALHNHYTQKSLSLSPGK

[16] = molecular target: IFNAR1-IgG single alanine mutant E291A (human); test: as above
Chain of IFNAR1-IgG single alanine mutant E291A (human) (chain, as listed by the source E291A E291A limits assumed): as the sequence (chain, as listed by the source D296A D296A limits assumed) above, with E291A, A296D counted along it

[17] = molecular target: IFNAR1-IgG single alanine mutant E292A (human); test: as above
[18] = molecular target: IFNAR1-IgG single alanine mutant E298A (human); test: as above
[19] = molecular target: IFNAR1-IgG single alanine mutant E69A (human); test: as above
[20] = molecular target: IFNAR1-IgG single alanine mutant E70A (human); test: as above
Chain of IFNAR1-IgG single alanine mutant E70A (human) (chain, as listed by the source E70A E70A limits assumed): as the sequence (chain, as listed by the source D296A D296A limits assumed) above, with E70A, A296D counted along it

[21] = molecular target: IFNAR1-IgG single alanine mutant H244A (human); test: as above
[22] = molecular target: IFNAR1-IgG single alanine mutant K247A (human); test: as above
[23] = molecular target: IFNAR1-IgG single alanine mutant K249A (human); test: as above
Chain of IFNAR1-IgG single alanine mutant K249A (human) (chain, as listed by the source K249A K249A limits assumed): as the sequence (chain, as listed by the source D296A D296A limits assumed) above, with K249A, A296D counted along it

[24] = molecular target: IFNAR1-IgG single alanine mutant K294A (human); test: as above
[25] = molecular target: IFNAR1-IgG single alanine mutant K72A (human); test: as above
Chain of IFNAR1-IgG single alanine mutant K72A (human) (chain, as listed by the source K72A K72A limits assumed): as the sequence (chain, as listed by the source D296A D296A limits assumed) above, with K72A, A296D counted along it

[26] = molecular target: IFNAR1-IgG single alanine mutant R74A (human); test: as above
[27] = molecular target: human IFNAR1, membrane receptor on cells (U266 human myeloma cells; Hela and A549 cells in the functional assays) (human) (UniProt P17181); test: flow cytometry on U266 cells, F-mAb preincubated with competitor: 10 µg soluble hIFNAR1-IgG Mutant #7 (244-249)
[28] = molecular target: human IFNAR1, membrane receptor on cells (U266 human myeloma cells; Hela and A549 cells in the functional assays) (human) (UniProt P17181); test: flow cytometry on U266 cells, F-mAb preincubated with competitor: 10 µg soluble hIFNAR1-IgG Mutant #8 (291-298)
[29] = molecular target: human IFNAR1, membrane receptor on cells (U266 human myeloma cells; Hela and A549 cells in the functional assays) (human) (UniProt P17181); test: flow cytometry on U266 cells, fluoresceinated control IgG, no soluble hIFNAR1

EC50 of mAb neutralizing the anti-viral cytopathic effect of 10 units/ml IFNα1 on A549 cells (EMC virus) [1]	EC50 of mAb neutralizing the anti-viral cytopathic effect of 10 units/ml IFNα2/1 on A549 cells (EMC virus) [1]	EC50 of mAb neutralizing the anti-viral cytopathic effect of 10 units/ml IFNα2 on A549 cells (EMC virus) [1]	EC50 of mAb neutralizing the anti-viral cytopathic effect of 10 units/ml IFNα5 on A549 cells (EMC virus) [1]	EC50 of mAb neutralizing the anti-viral cytopathic effect of 10 units/ml IFNα8 on A549 cells (EMC virus) [1]	EC50 of mAb neutralizing the anti-viral cytopathic effect of 10 units/ml IFNβ on A549 cells (EMC virus) [1]	Mean Fluorescence Intensity [2]	Mean Fluorescence Intensity [3]	Kd [4]	% Wild type binding of mAbs [5]	% Wild type binding of mAbs [6]	% Wild type binding of mAbs [7]	% Wild type binding of mAbs [8]	% Wild type binding of mAbs [9]	% Wild type binding of mAbs [10]	% Wild type binding of mAbs [11]	% Wild type binding of mAbs [12]	% Wild type binding of mAbs [13]	% Wild type binding of mAbs [14]	% Wild type binding of mAbs [15]	Substance	also measured
> 30 µg/mL	> 30 µg/mL	> 30 µg/mL	> 30 µg/mL	> 30 µg/mL	> 30 µg/mL	7.96	3.16	0.097 nM	84%	116%	18%	69%	33%	43%	77%	77%	0%	81%	3%	anti-hIFNAR1 monoclonal antibody 2E8 (hybridoma ATCC HB 12130)	% Wild type binding of mAbs [16]: 3%; % Wild type binding of mAbs [17]: 29%; % Wild type binding of mAbs [18]: 31%; % Wild type binding of mAbs [19]: 72%; % Wild type binding of mAbs [20]: 80%; % Wild type binding of mAbs [21]: 96%; % Wild type binding of mAbs [22]: 66%; % Wild type binding of mAbs [23]: 54%; % Wild type binding of mAbs [24]: 54%; % Wild type binding of mAbs [25]: 89%; % Wild type binding of mAbs [26]: 53%; Mean Fluorescence Intensity [27]: 3.27; Mean Fluorescence Intensity [28]: 7.6
																				control IgG (antibody)	Mean Fluorescence Intensity [29]: 2.99
3 µg/mL	3 µg/mL	1 µg/mL	1 µg/mL	1 µg/mL	> 30 µg/mL	7.6	2.83	0.066 nM	101%	105%	21%	97%	66%	87%	84%	0%	6%	105%	5%	anti-hIFNAR1 monoclonal antibody 2E1 (hybridoma ATCC HB 12133)	% Wild type binding of mAbs [16]: 7%; % Wild type binding of mAbs [17]: 34%; % Wild type binding of mAbs [18]: 36%; % Wild type binding of mAbs [19]: 72%; % Wild type binding of mAbs [20]: 81%; % Wild type binding of mAbs [21]: 92%; % Wild type binding of mAbs [22]: 74%; % Wild type binding of mAbs [23]: 5%; % Wild type binding of mAbs [24]: 54%; % Wild type binding of mAbs [25]: 90%; % Wild type binding of mAbs [26]: 57%; Mean Fluorescence Intensity [27]: 7.82; Mean Fluorescence Intensity [28]: 7.65
10 µg/mL	20 µg/mL	10 µg/mL	6 µg/mL	3 µg/mL	> 30 µg/mL	9.49	2.45	0.052 nM	95%	103%	0%	92%	80%	90%	100%	106%	96%	101%	53%	anti-hIFNAR1 monoclonal antibody 4A7 (hybridoma ATCC HB 12132)	% Wild type binding of mAbs [16]: 58%; % Wild type binding of mAbs [17]: 58%; % Wild type binding of mAbs [18]: 60%; % Wild type binding of mAbs [19]: 69%; % Wild type binding of mAbs [20]: 85%; % Wild type binding of mAbs [21]: 96%; % Wild type binding of mAbs [22]: 86%; % Wild type binding of mAbs [23]: 73%; % Wild type binding of mAbs [24]: 69%; % Wild type binding of mAbs [25]: 91%; % Wild type binding of mAbs [26]: 30%; Mean Fluorescence Intensity [27]: 2.95; Mean Fluorescence Intensity [28]: 3.16
